Measurements taken from patent US20210346432A1 (Memorial Sloan Kettering, published 2021).
Each block holds one binder with its values, some of them ahead of it. No end group written: not given here. *: point of attachment. Biotin = O=C1N[C@H]2[C@H](CS[C@H]2CCCCC(=O)*)N1

Tests used:
[1] = target: T1, ET140-p1 (human); assay: peptide ELISA, biotin peptide on streptavidin plate
T1 construct: also called peptide 1; ET140-pl
T1 peptide: Biotin-SGSGLQMAGQCSQNEYFDS
Description: (§1) The peptides were coated onto Streptavidin plates at 2 ug/mL in PBST (PBS+0.05% Tween-20). After washing and blocking with 3% BSA. […] “mIgG1” used in all Examples represents that the variable region is fully human and the Fc part is mouse IgG1. Then HRP anti-mouse IgG detection antibody was added to each well. Finally, the color was developed using TMB substrate. A450 was recorded for data analysis.

[2] = target: T2, ET140-p4 (human); assay: as above
T2 construct: also called peptide 4
T2 peptide: Biotin-SGSGAGQCSQNEYFDSLLH
Description: as §1

[3] = target: T3, ET140-p7 (human, cysteine pairing not given here); assay: as above
T3 construct: also called peptide 7
T3 peptide: Biotin-SGSGCSQNEYFDSLLHACI
Description: as §1

[4] = target: T4, ET140-p8 (human); assay: as above
T4 construct: also called peptide 8
T4 peptide: Biotin-SGSGSQNEYFDSLLHACIP
Description: as §1

[5] = target: T5, ET140-p11 (human, cysteine pairing not given here); assay: as above
T5 construct: also called peptide 11; ET140-pll
T5 peptide: Biotin-SGSGEYFDSLLHACIPCQL
Description: as §1

[6] = target: T6, ET140-p14 (human, cysteine pairing not given here); assay: as above
T6 construct: also called peptide 14
T6 peptide: Biotin-SGSGDSLLHACIPCQLRCS
Description: as §1

[7] = target: T7, ET140-p15 (human, cysteine pairing not given here); assay: as above
T7 construct: also called peptide 15
T7 peptide: Biotin-SGSGSLLHACIPCQLRCSS
Description: as §1

[8] = target: T8, ET140-p17 (human, cysteine pairing not given here); assay: as above
T8 construct: also called peptide 17
T8 peptide: Biotin-SGSGLHACIPCQLRCSSNT
Description: as §1

[9] = target: T9, ET140-p19 (human, cysteine pairing not given here); assay: as above
T9 construct: also called peptide 19
T9 peptide: Biotin-SGSGACIPCQLRCSSNTPP
Description: as §1

[10] = target: T10, ET140-p24 (human, cysteine pairing not given here); assay: as above
T10 construct: also called peptide 24
T10 peptide: Biotin-SGSGQLRCSSNTPPLTCQR
Description: as §1

[11] = target: T11, ET140-p31 (human, cysteine pairing not given here); assay: as above
T11 construct: also called peptide 31
T11 peptide: Biotin-SGSGTPPLTCQRYCNASVT
Description: as §1

[12] = target: T12, ET140-p32 (human, cysteine pairing not given here); assay: as above
T12 construct: also called peptide 32
T12 peptide: Biotin-SGSGPPLTCQRYCNASVTN
Description: as §1

[13] = target: T13, ET140-p33 (human, cysteine pairing not given here); assay: as above
T13 construct: also called peptide 33
T13 peptide: Biotin-SGSGPLTCQRYCNASVTNS
Description: as §1

[14] = target: T14, ET140-p34 (human, cysteine pairing not given here); assay: as above
T14 construct: also called peptide 34
T14 peptide: Biotin-SGSGLTCQRYCNASVTNSV
Description: as §1

[15] = target: T15, ET140-p35 (human, cysteine pairing not given here); assay: as above
T15 construct: also called peptide 35
T15 peptide: Biotin-SGSGTCQRYCNASVTNSVK
Description: as §1

[16] = target: T16, ET140-p36 (human, cysteine pairing not given here); assay: as above
T16 construct: also called peptide 36
T16 peptide: Biotin-SGSGCQRYCNASVTNSVKG
Description: as §1

[17] = target: T1, ET140-p1; assay: peptide ELISA on streptavidin plate, antibody 1 ug/mL
Description: as §1

[18] = target: T2, ET140-p4; assay: as above
Description: as §1

[19] = target: T17, ET140-p6 (human, cysteine pairing not given here); assay: as above
T17 construct: also called peptide 6
T17 peptide: Biotin-SGSGQCSQNEYFDSLLHAC
Description: as §1

[20] = target: T3, ET140-p7; assay: as above
Description: as §1

[21] = target: T18, ET140-p12 (human, cysteine pairing not given here); assay: as above
T18 construct: also called peptide 12
T18 peptide: Biotin-SGSGYFDSLLHACIPCQLR
Description: as §1

[22] = target: T6, ET140-p14; assay: as above
Description: as §1

[23] = target: T7, ET140-p15; assay: as above
Description: as §1

[24] = target: T19, ET140-p16 (human, cysteine pairing not given here); assay: as above
T19 construct: also called peptide 16
T19 peptide: Biotin-SGSGLLHACIPCQLRCSSN
Description: as §1

[25] = target: T8, ET140-p17; assay: as above
Description: as §1

[26] = target: T9, ET140-p19; assay: as above
Description: as §1

[27] = target: T20, ET140-p20 (human, cysteine pairing not given here); assay: as above
T20 construct: also called peptide 20
T20 peptide: Biotin-SGSGCIPCQLRCSSNTPPL
Description: as §1

[28] = target: T21, ET140-p29 (human, cysteine pairing not given here); assay: as above
T21 construct: also called peptide 29
T21 peptide: Biotin-SGSGSNTPPLTCQRYCNAS
Description: as §1

[29] = target: T13, ET140-p33; assay: as above
Description: as §1

[30] = target: T14, ET140-p34; assay: as above
Description: as §1

[31] = target: T16, ET140-p36; assay: as above
Description: as §1

binding result [1]: no binding (tested: 1 ug/mL)
binding result [2]: no binding (tested: 1 ug/mL)
binding result [3]: no binding (tested: 1 ug/mL)
binding result [4]: no binding (tested: 1 ug/mL)
binding result [5]: no binding (tested: 1 ug/mL)
binding result [6]: no binding (tested: 1 ug/mL)
binding result [7]: no binding (tested: 1 ug/mL)
binding result [8]: no binding (tested: 1 ug/mL)
binding result [9]: no binding (tested: 1 ug/mL)
binding result [10]: no binding (tested: 1 ug/mL)
binding result [11]: no binding (tested: 1 ug/mL)
binding result [12]: no binding (tested: 1 ug/mL)
binding result [13]: no binding (tested: 1 ug/mL)
binding result [14]: no binding (tested: 1 ug/mL)
binding result [15]: no binding (tested: 1 ug/mL)
binding result [16]: no binding (tested: 1 ug/mL)
A450 [17]: 0.069
A450 [18]: 0.073
A450 [19]: 0.095
A450 [20]: 0.075
A450 [21]: 0.139
A450 [22]: 0.104
A450 [23]: 0.276
A450 [24]: 0.263
A450 [25]: 0.146
A450 [26]: 0.099
A450 [27]: 0.081
A450 [28]: 0.083
A450 [29]: 0.084
A450 [30]: 0.07
A450 [31]: 0.085
B1: ET140-204 mIgG1 (antibody, V domains shown)
VH: EVQLVQSGAEMKKPGASLKLSCKASGYTFIDYYVYWMRQAPGQGLESMGWINPNSGGTNYAQKFQGRVTMTRDTSISTAYMELSRLRSDDTAMYYCARSQRDGYMDYWGQGTLVTVSS
VL: QSALTQPASVSASPGQSIAISCTGTSSDVGWYQQHPGKAPKLMIYEDSKRPSGVSNRFSGSKSGNTASLTISGLQAEDEADYYCSSNTRSSTLVFGGGTKLTVLG
notes: also called ET140-54 mIgG1; ET140-54

A450 [17]: 0.084
A450 [18]: 0.094
A450 [19]: 0.127
A450 [20]: 0.381
A450 [21]: 2.08
A450 [22]: 0.124
A450 [23]: 0.328
A450 [24]: 0.266
A450 [25]: 0.155
A450 [26]: 0.098
A450 [27]: 0.087
A450 [28]: 0.109
A450 [29]: 0.116
A450 [30]: 0.099
A450 [31]: 0.089
B2: ET140-153 mIgG1 (antibody, V domains shown)
VH: QVQLVQSGAEVKKPGSSVKVSCKASGGTFSSYAISWVRQAPGQGLEWMGRIIPILGIANYAQKFQGRVTITADKSTSTAYMELSSLRSEDTAVYYCARGGYYSHDMWSEDWGQGTLVTVSS
VL: LPVLTQPPSASGTPGQRVTISCSGRSSNIGSNSVNWYRQLPGAAPKLLIYSNNQRPPGVPVRFSGSKSGTSASLAISGLQSEDEATYYCATWDDNLNVHYVFGTGTKVTVLG
notes: also called ET140-3 mIgG1; ET140-3

binding result [1]: no binding (tested: 1 ug/mL)
binding result [2]: no binding (tested: 1 ug/mL)
binding result [3]: no binding (tested: 1 ug/mL)
binding result [4]: no binding (tested: 1 ug/mL)
binding result [5]: no binding (tested: 1 ug/mL)
binding result [6]: no binding (tested: 1 ug/mL)
binding result [7]: no binding (tested: 1 ug/mL)
binding result [8]: no binding (tested: 1 ug/mL)
binding result [9]: no binding (tested: 1 ug/mL)
binding result [10]: no binding (tested: 1 ug/mL)
binding result [11]: no binding (tested: 1 ug/mL)
binding result [12]: no binding (tested: 1 ug/mL)
binding result [13]: no binding (tested: 1 ug/mL)
binding result [14]: no binding (tested: 1 ug/mL)
binding result [15]: no binding (tested: 1 ug/mL)
binding result [16]: no binding (tested: 1 ug/mL)
A450 [17]: 0.084
A450 [18]: 0.081
A450 [19]: 0.105
A450 [20]: 0.087
A450 [21]: 0.137
A450 [22]: 0.105
A450 [23]: 0.268
A450 [24]: 0.231
A450 [25]: 0.15
A450 [26]: 0.104
A450 [27]: 0.083
A450 [28]: 0.09
A450 [29]: 0.083
A450 [30]: 0.069
A450 [31]: 0.084
B3: ET140-174 mIgG1 (antibody, V domains shown)
VH: EVQLVQSGAEVKKPGESLKISCKGSGYSFTSYWIGWVRQMPGKGLEWMGIIYPGDSDTRYSPSFQGHVTISADKSISTAYLQWSSLKASDTAMYYCARYSGSFDNWGQGTLVTVSS
VL: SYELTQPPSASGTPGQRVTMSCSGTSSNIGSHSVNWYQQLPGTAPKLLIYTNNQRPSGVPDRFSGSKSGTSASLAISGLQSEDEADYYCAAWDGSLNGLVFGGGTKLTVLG
notes: also called ET140-24 mIgG1; ET140-24
